Assay results published in US20210155689A1 (SHANGHAI PHARMAEXPLORER, published 2021).

Key:
[1] = target: T1, human LAG-3 protein with hFc tag (hLAG-3-hFc protein) (human, UniProt P18627 23-450); assay: FACS, blocks LAG-3-hFc binding to MHC II on Raji; 7.407 nM
T1 construct: also called immunogen 1; LAG-3 extracellular domain protein; not shown: human IgG Fc fragment (hFc) of the pCpC vector
T1 sequence: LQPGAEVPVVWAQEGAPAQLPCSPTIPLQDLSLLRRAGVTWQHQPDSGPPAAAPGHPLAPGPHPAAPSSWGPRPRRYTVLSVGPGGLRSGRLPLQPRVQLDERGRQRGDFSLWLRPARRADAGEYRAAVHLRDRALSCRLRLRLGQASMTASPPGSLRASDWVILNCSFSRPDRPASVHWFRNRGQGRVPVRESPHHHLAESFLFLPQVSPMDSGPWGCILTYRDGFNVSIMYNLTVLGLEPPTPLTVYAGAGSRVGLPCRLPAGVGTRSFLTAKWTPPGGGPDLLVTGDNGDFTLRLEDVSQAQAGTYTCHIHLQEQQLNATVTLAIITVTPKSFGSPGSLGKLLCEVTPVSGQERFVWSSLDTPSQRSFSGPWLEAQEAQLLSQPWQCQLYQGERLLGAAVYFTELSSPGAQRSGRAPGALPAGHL
Method: The FACS reaction plate incubating the Raji cells was centrifuged to discard the supernatant. The above mixture was added as 100 μl per well to Raji cells and incubated on ice for 1-2 hours. The plate was washed twice with blocking solution (PBS, 2% fetal bovine serum) by centrifugation, added with 100 microliters of fluorescent (Alexa 488)-labeled secondary antibodies per well, and incubated on ice for 1.0 hours. The plate was washed 2-3 times by centrifugation with blocking solution (PBS, 2% fetal bovine serum), added with 100 microliters of PBS per well to suspend cells, and detected using FACS (FACS Calibur, BD) and the results were analyzed. Wherein, the IgG control was murine IgG, and the data in the table is the inhibition rate (%).

[2] = target: T2, monkey LAG-3 (full length, on the cell surface) (monkey, UniProt P18627 24-525 (human entry)); assay: FACS, HEK293-cLAG-3; 0.000 nM
T2 construct: also called HEK293-cLAG-3; monkey LAG-3 protein on the cell surface
T2 chain: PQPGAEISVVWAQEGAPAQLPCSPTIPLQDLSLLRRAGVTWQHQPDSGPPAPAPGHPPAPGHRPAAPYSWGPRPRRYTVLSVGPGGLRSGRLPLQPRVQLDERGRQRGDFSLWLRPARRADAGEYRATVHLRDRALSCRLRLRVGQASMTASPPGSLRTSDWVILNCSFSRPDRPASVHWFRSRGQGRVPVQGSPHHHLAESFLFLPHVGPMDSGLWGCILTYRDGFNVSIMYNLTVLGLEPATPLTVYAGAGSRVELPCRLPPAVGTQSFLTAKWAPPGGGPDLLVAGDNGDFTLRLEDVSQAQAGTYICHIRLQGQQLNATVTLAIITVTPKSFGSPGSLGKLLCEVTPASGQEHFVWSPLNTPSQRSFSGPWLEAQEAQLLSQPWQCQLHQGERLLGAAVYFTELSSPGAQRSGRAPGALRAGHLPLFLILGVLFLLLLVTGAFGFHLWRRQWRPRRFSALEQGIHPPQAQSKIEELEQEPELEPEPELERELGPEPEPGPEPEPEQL
Description: The pIRES plasmid with the monkey-derived full-length gene was transfected into the HEK293 cell line to construct a HEK293 stable cell line containing monkey LAG-3 (herein referred to as HEK293-cLAG-3 stable cell line). The HEK293-hLAG-3 stable cell line and HEK293-cLAG-3 stable cell line were expanded in a T-75 cell culture flask to a 90% confluence. The medium was aspirated, and the cells were washed with HBSS (Hanks' Balanced Salt Solution) 1-2 times, then treated with a enzyme-free cell dissociation fluid (Versene solution: Life technology) and the cells were collected. The cells were washed with HBSS buffer for 1-2 times. After counted, the cells were diluted with HBSS to 1-2×10⁶ cells per ml, added with 1% goat serum blocking solution, incubated on ice for 20-30 minutes, and then washed with HBSS for 2 times by centrifugation. The collected cells were suspended in the FACS buffer (HBSS+1% BSA) to 2×10⁶ cells/ml, added as 100 microliters per well to a 96-well FACS reaction plate, added with 100 microliters per well of the antibody sample to be tested, incubated on ice for 1-2 hours. The plate was washed twice with the FACS buffer by centrifugation, added with 100 microliters of fluorescent (Alexa 488)-labeled secondary antibodies per well, and incubated on ice for 0.5-1.0 hours. The plate was washed 2-3 times with FACS buffer by centrifugation, added with 100 μl fixative solution (4% Paraformaldehyde) per well to suspend the cells. 5-10 minutes later, it was washed 1-2 times with FACS buffer by centrifugation. The cells were suspended with 100 microliters of FACS buffer, FACS (FACSCalibur, BD) was used for detection and the results were analyzed.

[3] = target: T3, mouse LAG-3 protein with hFc tag (mLAG-3-hFc protein) (mouse; human, UniProt Q61790 24-442); assay: ELISA, mLAG-3-hFc coated; 0.6667 nM
T3 construct: Made in HEK293 cells; also called mouse LAG-3 extracellular domain protein; not shown: human IgG Fc fragment (hFc) of the pCpC vector
T3 sequence: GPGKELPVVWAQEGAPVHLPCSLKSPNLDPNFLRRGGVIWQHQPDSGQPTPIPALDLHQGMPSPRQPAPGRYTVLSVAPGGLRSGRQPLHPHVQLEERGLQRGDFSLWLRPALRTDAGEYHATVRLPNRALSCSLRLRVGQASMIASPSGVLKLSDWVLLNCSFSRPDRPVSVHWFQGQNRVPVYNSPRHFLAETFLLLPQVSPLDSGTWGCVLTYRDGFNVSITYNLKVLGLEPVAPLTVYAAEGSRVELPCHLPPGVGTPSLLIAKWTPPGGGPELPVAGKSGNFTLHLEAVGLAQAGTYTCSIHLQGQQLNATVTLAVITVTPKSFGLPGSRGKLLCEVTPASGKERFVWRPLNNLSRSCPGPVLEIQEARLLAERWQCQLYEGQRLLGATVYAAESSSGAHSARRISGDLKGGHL
Method: The plate was sealed with plastic film and incubated overnight at 4° C. The plate was washed 2 times with the plate washing solution (PBS+0.01% Tween20) on the next day, and added with the blocking solution (PBS+0.01% Tween20+1% BSA) and blocked at room temperature for 1-2 hours. The blocking solution was poured out, and the plate was added with 50-100 μl of the antibody sample to be tested to each well, incubated at 37° C. for 1-2 hours, and washed 2-3 times with a plate washing solution (PBS+0.01% Tween20). HRP (horseradish peroxidase) labeled secondary antibody was added, and the plate was incubated at 37° C. for 1-2 hours, and washed 2-3 times with a plate washing solution (PBS+0.01% Tween20). 100 μl of TMB substrate was added to each well. After incubated at room temperature for 15-30 minutes, the plate was added with 100 μl of stop solution (1.0N HCl) to each well.

B1: 405B8H3 (mouse antibody purified from hybridoma) (antibody, V domains shown)
VH: QVQLQQSGAELVRPGASVTLSCKASGYTFTDYEMHWVKQTPVHGLEWIGATDPETGNSAYNQKFKGKAIMTADKSSSTAYMELRSLTSEDSAVYYCISTGWNDWGQGTSLTVSS
VL: DIKMTQSPSSMYASLGERVTITCKASQDINSYLSWFQQKPGKSPKTLIYRADRLLDGVPSRFSGSGSGQDYSLTISSLEYGDMGIYYCLQYDEFPYTFGGGTKLEIK
notes: also called mAb103-405B8H3; 405B81-13
Inhibition rate (%) [1]: 87.3%
Mean fluorescence intensity [2]: 3.9 MFI

B2: 105F1E10 (LAG-3 mouse-human chimeric antibody) (antibody, V domains shown)
VH: EVQLQQSGPELVKPGASVKMSCRASGYTFTDFKMHWMKQSHGKSLEWIGYIAPNNGGTAYNQKFRGKATLTVNESSNTAYMELRSLTSEDSAVYYCVDWDDVDYWGQGTTLTVSS
VL: DIKMTQSPSSMYASLGERVTITCKASQDINSYLSWFQQKSGKSPKTLIYRANRLVDGVPSRFSGSGSGQDYSLTISSLEYEDMGIYYCLQYVEFPLTFGAGTKLELK
OD450 [3]: 0.09 OD450

B3: 105F1E10 (mouse antibody purified from hybridoma) (antibody, V domains shown)
VH: EVQLQQSGPELVKPGASVKMSCRASGYTFTDFKMHWMKQSHGKSLEWIGYIAPNNGGTAYNQKFRGKATLTVNESSNTAYMELRSLTSEDSAVYYCVDWDDVDYWGQGTTLTVSS
VL: DIKMTQSPSSMYASLGERVTITCKASQDINSYLSWFQQKSGKSPKTLIYRANRLVDGVPSRFSGSGSGQDYSLTISSLEYEDMGIYYCLQYVEFPLTFGAGTKLELK
notes: also called mAb009-105F1E10
Inhibition rate (%) [1]: 81%
Mean fluorescence intensity [2]: 3.9 MFI

B4: 405B8H3 (LAG-3 mouse-human chimeric antibody) (antibody, V domains shown)
VH: QVQLQQSGAELVRPGASVTLSCKASGYTFTDYEMHWVKQTPVHGLEWIGATDPETGNSAYNQKFKGKAIMTADKSSSTAYMELRSLTSEDSAVYYCISTGWNDWGQGTSLTVSS
VL: DIKMTQSPSSMYASLGERVTITCKASQDINSYLSWFQQKPGKSPKTLIYRADRLLDGVPSRFSGSGSGQDYSLTISSLEYGDMGIYYCLQYDEFPYTFGGGTKLEIK
notes: also called mouse-human chimeric antibody 405B8H3
OD450 [3]: 0.11 OD450

B5: 409D4E10 (LAG-3 mouse-human chimeric antibody) (antibody, V domains shown)
VH: QVQLQQSGAELVRPGASVTLSCKASGNTFTDYEMHWVKQTPVHGLEWIGATDPETDNTAYNQKFKGKAILTTDKSSSTAYMELRSLTSEDSAVYYCITSGWNDWGQGTSLTVSS
VL: DIKMTQSPSSMYASLGERVTITCKASQDINSYLSWFQQKPGKSPKTLIYRANRLLDGVPSRFSGSGSGQDYSLTISSLEYEDMGIYYCLQYNEFPYTFGGGTKLEIK
OD450 [3]: 0.11 OD450

B6: 409D4E10 (mouse antibody purified from hybridoma) (antibody, V domains shown)
VH: QVQLQQSGAELVRPGASVTLSCKASGNTFTDYEMHWVKQTPVHGLEWIGATDPETDNTAYNQKFKGKAILTTDKSSSTAYMELRSLTSEDSAVYYCITSGWNDWGQGTSLTVSS
VL: DIKMTQSPSSMYASLGERVTITCKASQDINSYLSWFQQKPGKSPKTLIYRANRLLDGVPSRFSGSGSGQDYSLTISSLEYEDMGIYYCLQYNEFPYTFGGGTKLEIK
notes: also called mAb112-409D4E10
Inhibition rate (%) [1]: 93%
Mean fluorescence intensity [2]: 3 MFI

B7: 409B11E12 (mouse antibody purified from hybridoma) (antibody, V domains shown)
VH: QVQLQQSGAELVRPGASVTLSCKASGYTFTDYEMHWVKQTTVHGLEWIGATDPETSYSAYNQKFKGKAILTADKSSSTAYMELRSLTSEDSAVYYCIATGWNDWGQGTSLTVSS
VL: DLKMTQSPSSMYASLGERVTITCKASQDINSYLSWFQQKPGKSPKTLIYRANRLLDGVPSRFSGSGSGQDYSLTISSLEYEDMGIYYCLQYDEFPYTFGGGTKLEIK
notes: also called mAb104-409B11E12
Inhibition rate (%) [1]: 93.4%
Mean fluorescence intensity [2]: 3 MFI

B8: 409B11E12 (LAG-3 mouse-human chimeric antibody) (antibody, V domains shown)
VH: QVQLQQSGAELVRPGASVTLSCKASGYTFTDYEMHWVKQTTVHGLEWIGATDPETSYSAYNQKFKGKAILTADKSSSTAYMELRSLTSEDSAVYYCIATGWNDWGQGTSLTVSS
VL: DLKMTQSPSSMYASLGERVTITCKASQDINSYLSWFQQKPGKSPKTLIYRANRLLDGVPSRFSGSGSGQDYSLTISSLEYEDMGIYYCLQYDEFPYTFGGGTKLEIK
OD450 [3]: 0.1 OD450

B9: 556F6B8 (mouse antibody purified from hybridoma) (antibody, V domains shown)
VH: RVQLKQSGPGLVQPSQSLSITCTVSGFSLIKYGVHWVRQSPGEGLEWLGVIWRGGITDYNAAFMSRLSITKDNSKSQVFFKMNSLQADDTAIYYCAKWDGPLAMDYWGQGTSVTVSS
VL: DIVMTQSHKFLSTSVGDRVSITCKASQDVGTTVAWYQQKPGQSPKLLIYWASTRHTGVPDRFTGSGSGTDFTLTISNVQSEDLADYFCQQYSSYPYTFGGGTKLEIK
notes: also called mAb123-556F6B8
Inhibition rate (%) [1]: 93.3%
Mean fluorescence intensity [2]: 3.4 MFI

B10: 556F6B8 (LAG-3 mouse-human chimeric antibody) (antibody, V domains shown)
VH: RVQLKQSGPGLVQPSQSLSITCTVSGFSLIKYGVHWVRQSPGEGLEWLGVIWRGGITDYNAAFMSRLSITKDNSKSQVFFKMNSLQADDTAIYYCAKWDGPLAMDYWGQGTSVTVSS
VL: DIVMTQSHKFLSTSVGDRVSITCKASQDVGTTVAWYQQKPGQSPKLLIYWASTRHTGVPDRFTGSGSGTDFTLTISNVQSEDLADYFCQQYSSYPYTFGGGTKLEIK
notes: also called 556F8B8
OD450 [3]: 0.15 OD450
